Data reported in patent US20090149339A1 (published 2009).
Ends that are not written are not given here. * marks the point of attachment. Biotin = O=C1N[C@H]2[C@H](CS[C@H]2CCCCC(=O)*)N1

Key:
[1] = target: T1, GST-RGS12 PDZ domain fusion protein (human regulator of G-protein signalling 12 AA35-103; PDZ domain 1 of 1) (human, UniProt P08515 1-218 = GST); assay: A/G assays
T1 construct: also called RSG12

[2] = target: T2, GST-TAX33 PDZ domain fusion protein (tax interaction protein 33 AA73-162; PDZ domain 1 of 1) (UniProt P08515 1-218 = GST); assay: A/G assays
T2 construct: also called TX33

[3] = target: T3, GST-TAX40 PDZ domain fusion protein (human tax interaction protein 40 AA35-137; PDZ domain 1 of 1) (human, UniProt P08515 1-218 = GST); assay: A/G assays
T3 construct: also called TX 40

[4] = target: T4, GST-KIAA0303 PDZ domain fusion protein (KIAA0303 AA652-742; PDZ domain 1 of 1) (UniProt P08515 1-218 = GST); assay: A/G assays
T4 construct: also called K303

[5] = target: T5, GST-SYN1a PDZ domain fusion protein (alpha1-syntrophin AA96-189; PDZ domain 1 of 1) (UniProt P08515 1-218 = GST); assay: A/G assays
T5 construct: also called SYN 1 alpha; SYNTR 1 alpha

[6] = target: GST-LIMK2 PDZ domain fusion protein (human LIM domain kinase 2 AA185-275; PDZ domain 1 of 1) (human, UniProt P08515 1-218 = GST); assay: A/G assays
[7] = target: T6, GST-41.8 kD PDZ domain fusion protein (hypothetical 41.8 kD protein AA4-85; PDZ domain 1 of 1) (UniProt P08515 1-218 = GST); assay: A/G assays
T6 construct: also called hypoth

[8] = target: GST-AF6 PDZ domain fusion protein (af-6 protein AA985-1077; PDZ domain 1 of 1) (UniProt P08515 1-218 = GST); assay: A/G assays
[9] = target: GST-DVL1 PDZ domain fusion protein (human dishevelled segment polarity protein homolog AA248-340); PDZ domain … (human, UniProt P08515 1-218 = GST); assay: A/G assays
[10] = target: T7, GST-CASK PDZ domain fusion protein (CASK AA495-584; PDZ domain 1 of 1) (mouse, UniProt P08515 1-218 = GST); assay: A/G assays
T7 construct: also called mCASK

[11] = target: T8, GST-KIAA0559 PDZ domain fusion protein (KIAA0559 AA766-870; PDZ1 of 1) (UniProt P08515 1-218 = GST); assay: A/G assays
T8 construct: also called K559

[12] = target: T9, GST-TAX2 PDZ domain fusion protein (human tax interaction protein 2 AA54-140; PDZ domain 1 of 1) (human, UniProt P08515 1-218 = GST); assay: A/G assays
T9 construct: also called TX 2

[13] = target: T10, GST-TAX43 PDZ domain fusion protein (human tax interaction protein 43 AA15-85; PDZ domain 1 of 1) (human, UniProt P08515 1-218 = GST); assay: A/G assays
T10 construct: also called TX 43

[14] = target: GST-NOS1 PDZ domain fusion protein (human neuronal nitric oxide synthase; PDZ domain 1 of 1) (human, UniProt P08515 1-218 = GST); assay: A/G assays
[15] = target: T11, GST-MPP2 PDZ domain fusion protein (maguk p55 subfamily member 2 (DLG2) AA185-273; PDZ domain 1 of 1) (UniProt P08515 1-218 = GST); assay: A/G assays
T11 construct: also called MMP2

[16] = target: T12, GST-CBP PDZ domain fusion protein (Cytohesin binding protein HE AA85-175; PDZ domain 1 of 1) (UniProt P08515 1-218 = GST); assay: A/G assays
T12 construct: also called Prot

[17] = target: GST-prIL16 PDZ domain fusion protein (putative interleukin 16 precursor AA170-383; PDZ domains 1-2 of 2) (UniProt P08515 1-218 = GST); assay: A/G assays
[18] = target: GST-MINT3 PDZ domain fusion protein (human MINT3 AA11-52; PDZ domain 1 of 1) (human, UniProt P08515 1-218 = GST); assay: A/G assays
[19] = target: GST-PTN-4 PDZ domain fusion protein (protein-tyrosine phosphatase meg1 AA774-862; PDZ domain 1 of 1) (UniProt P08515 1-218 = GST); assay: A/G assays
[20] = target: GST-TIAM1 PDZ domain fusion protein (T-lymphoma invasion and metastasis inducing protein 1 AA1001-1088); PDZ 1 … (UniProt P08515 1-218 = GST); assay: A/G assays
[21] = target: T13, GST-KIAA0316 PDZ domain fusion protein (KIAA0316 AA197-284; PDZ domain 1 of 1) (UniProt P08515 1-218 = GST); assay: A/G assays
T13 construct: also called K316

[22] = target: GST-MPP1 PDZ domain fusion protein (55 Kd erythrocyte membrane protein AA101-186; PDZ domain 1 of 1) (UniProt P08515 1-218 = GST); assay: A/G assays
[23] = target: GST-LIM PDZ domain fusion protein (Human LIM protein AA29-112; PDZ domain 1 of 1) (human, UniProt P08515 1-218 = GST); assay: A/G assays
[24] = target: T14, GST-PSD95 PDZ domain fusion protein (human post-synaptic density protein 95 AA387-724; PDZ domains 1-3 of 3) (human, UniProt P08515 1-218 = GST); assay: A assay
[25] = target: T15, GST-NeDLG PDZ domain fusion protein (presynaptic protein sao102, neuroendocrine-dlg; PDZ domains 1-2 of 3) (UniProt P08515 1-218 = GST); assay: G assay
T15 construct: also called NeDLG1

[26] = target: T15, GST-NeDLG PDZ domain fusion protein …; assay: A/G assays
[27] = target: T6, GST-41.8 kD PDZ domain fusion protein …; assay: A and G assays
[28] = target: T14, GST-PSD95 PDZ domain fusion protein …; assay: A/G assays
[29] = target: T15, GST-NeDLG PDZ domain fusion protein …; assay: A assay

T12 sequence (P08515 1-218, tags or fused parts left off): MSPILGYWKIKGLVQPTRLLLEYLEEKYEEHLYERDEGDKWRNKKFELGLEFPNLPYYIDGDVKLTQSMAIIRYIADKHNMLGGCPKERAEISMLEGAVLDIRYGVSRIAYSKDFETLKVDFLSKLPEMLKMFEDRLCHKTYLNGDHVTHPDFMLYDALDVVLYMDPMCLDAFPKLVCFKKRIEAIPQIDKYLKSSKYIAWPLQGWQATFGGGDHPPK
T8 sequence (P08515 1-218, tags or fused parts left off): as above
T2 sequence (P08515 1-218, tags or fused parts left off): as above
T14 sequence (P08515 1-218, tags or fused parts left off): as above
T3 sequence (P08515 1-218, tags or fused parts left off): as above
T1 sequence (P08515 1-218, tags or fused parts left off): as above
GST-MPP1 PDZ domain fusion protein (55 Kd erythrocyte membrane protein AA101-186; PDZ domain 1 of 1), sequence (P08515 1-218, tags or fused parts left off): as above
T4 sequence (P08515 1-218, tags or fused parts left off): as above
GST-MINT3 PDZ domain fusion protein (human MINT3 AA11-52; PDZ domain 1 of 1), sequence (P08515 1-218, tags or fused parts left off): as above
T9 sequence (P08515 1-218, tags or fused parts left off): as above
GST-LIMK2 PDZ domain fusion protein (human LIM domain kinase 2 AA185-275; PDZ domain 1 of 1), sequence (P08515 1-218, tags or fused parts left off): as above
T7 sequence (P08515 1-218, tags or fused parts left off): as above
T6 sequence (P08515 1-218, tags or fused parts left off): as above
T15 sequence (P08515 1-218, tags or fused parts left off): as above
GST-prIL16 PDZ domain fusion protein (putative interleukin 16 precursor AA170-383; PDZ domains 1-2 of 2), sequence (P08515 1-218, tags or fused parts left off): as above
T13 sequence (P08515 1-218, tags or fused parts left off): as above
GST-AF6 PDZ domain fusion protein (af-6 protein AA985-1077; PDZ domain 1 of 1), sequence (P08515 1-218, tags or fused parts left off): as above
T5 sequence (P08515 1-218, tags or fused parts left off): as above
T10 sequence (P08515 1-218, tags or fused parts left off): as above
GST-PTN-4 PDZ domain fusion protein (protein-tyrosine phosphatase meg1 AA774-862; PDZ domain 1 of 1), sequence (P08515 1-218, tags or fused parts left off): as above
GST-TIAM1 PDZ domain fusion protein (T-lymphoma invasion and metastasis inducing protein 1 AA1001-1088); PDZ 1 …, sequence (P08515 1-218, tags or fused parts left off): as above

| Binder | binding result [1] | binding result [2] | binding result [3] | binding result [4] | binding result [5] | binding result [6] | binding result [8] | binding result [9] | binding result [10] | binding result [11] | binding result [12] | binding result [13] | binding result [14] | binding result [15] | binding result [16] | binding result [17] | binding result [18] | binding result [19] | binding result [20] | binding result [21] | further results |
| --- | --- | --- | --- | --- | --- | --- | --- | --- | --- | --- | --- | --- | --- | --- | --- | --- | --- | --- | --- | --- | --- |
| Biotin-QATSRNGHSARQHVVADTEL [CD34 C-terminal PL peptide AA7L, biotinylated] | no binding | no binding | no binding | no binding | no binding | no binding | no binding | no binding | no binding | no binding | no binding | no binding | no binding | no binding | no binding | no binding | no binding | no binding | no binding | no binding | binding result [7]: no binding; binding result [22]: no binding; binding result [23]: no binding; binding result [24]: binds; binding result [25]: binds |
| Biotin-SVFSIPTLWSPWPPSSSSQL (also called CD3-eta) [CD3n C-terminal PL peptide AA4L, biotinylated] | no binding | no binding | no binding | no binding | no binding | no binding | no binding | no binding | no binding | no binding | no binding | no binding | no binding | no binding | no binding | no binding | no binding | no binding | no binding | no binding | binding result [26]: no binding; binding result [22]: no binding; binding result [23]: no binding; binding result [24]: binds; binding result [27]: binds |
| Biotin-HKAEIHAQPSDKERLTSDA [CD49F (Aform, alpha 6) C-terminal PL peptide AA12L, biotinylated] | no binding | no binding | no binding | no binding | no binding | no binding | no binding | no binding | no binding | no binding | no binding | no binding | no binding | no binding | no binding | no binding | no binding | no binding | no binding | no binding | binding result [28]: no binding; binding result [26]: no binding; binding result [22]: no binding; binding result [23]: no binding; binding result [27]: binds |
| Biotin-ARHRVTSYTSSSVNVSSNL [CDW128A (IL8RA) C-terminal PL peptide AA29.1L, biotinylated] | no binding | no binding | no binding | no binding | no binding | no binding | no binding | no binding | no binding | no binding | no binding | no binding | no binding | no binding | no binding | no binding | no binding | no binding | no binding | no binding | binding result [28]: no binding; binding result [7]: no binding; binding result [22]: no binding; binding result [23]: no binding; binding result [29]: binds |
| Biotin-ISKATPALPTVSISSSAEV (also called AA1L-R) [CLASP-1 C-terminal PL peptide AA1L, biotinylated] | no binding | no binding | no binding | no binding | no binding | no binding | no binding | no binding | no binding | no binding | no binding | no binding | no binding | no binding | no binding | no binding | no binding | no binding | no binding | no binding | binding result [7]: no binding; binding result [22]: no binding; binding result [23]: no binding; binding result [24]: binds; binding result [25]: binds |
